Results as given in patent US20110262929A1 (FORERUNNER PHARMA RESEARCH, published 2011).

T1: C-terminal V5 tagged mouse HS6ST2 (mHS6ST2_ctV5), expressed in CHO DG44 cells (mouse, UniProt Q80UW0 148-612)
T1 construct: also called mHS6ST2_ctV5_CHO; mouse HS6ST2 transcript variant 2
T1 sequence: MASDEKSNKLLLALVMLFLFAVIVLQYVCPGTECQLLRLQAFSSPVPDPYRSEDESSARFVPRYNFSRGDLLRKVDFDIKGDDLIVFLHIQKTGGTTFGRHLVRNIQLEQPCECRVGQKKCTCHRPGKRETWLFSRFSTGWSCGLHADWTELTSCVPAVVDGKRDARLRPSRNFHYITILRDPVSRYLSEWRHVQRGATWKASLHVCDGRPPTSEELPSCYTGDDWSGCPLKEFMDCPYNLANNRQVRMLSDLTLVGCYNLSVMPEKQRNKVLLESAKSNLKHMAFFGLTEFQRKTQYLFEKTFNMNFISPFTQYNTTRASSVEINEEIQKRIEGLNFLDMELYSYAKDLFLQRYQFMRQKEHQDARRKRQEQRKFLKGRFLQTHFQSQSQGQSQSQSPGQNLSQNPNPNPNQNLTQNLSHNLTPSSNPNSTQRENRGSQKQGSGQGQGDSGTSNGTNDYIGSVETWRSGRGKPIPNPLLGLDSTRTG

T2: C-terminal V5 tagged HS6ST2_N-long (HS6ST2_N-long_ctV5), expressed in CHO DG44 cells (human, UniProt Q96MM7 1-605)
T2 construct: On cells in flow cytometry; also called Q96MM7-1
T2 sequence: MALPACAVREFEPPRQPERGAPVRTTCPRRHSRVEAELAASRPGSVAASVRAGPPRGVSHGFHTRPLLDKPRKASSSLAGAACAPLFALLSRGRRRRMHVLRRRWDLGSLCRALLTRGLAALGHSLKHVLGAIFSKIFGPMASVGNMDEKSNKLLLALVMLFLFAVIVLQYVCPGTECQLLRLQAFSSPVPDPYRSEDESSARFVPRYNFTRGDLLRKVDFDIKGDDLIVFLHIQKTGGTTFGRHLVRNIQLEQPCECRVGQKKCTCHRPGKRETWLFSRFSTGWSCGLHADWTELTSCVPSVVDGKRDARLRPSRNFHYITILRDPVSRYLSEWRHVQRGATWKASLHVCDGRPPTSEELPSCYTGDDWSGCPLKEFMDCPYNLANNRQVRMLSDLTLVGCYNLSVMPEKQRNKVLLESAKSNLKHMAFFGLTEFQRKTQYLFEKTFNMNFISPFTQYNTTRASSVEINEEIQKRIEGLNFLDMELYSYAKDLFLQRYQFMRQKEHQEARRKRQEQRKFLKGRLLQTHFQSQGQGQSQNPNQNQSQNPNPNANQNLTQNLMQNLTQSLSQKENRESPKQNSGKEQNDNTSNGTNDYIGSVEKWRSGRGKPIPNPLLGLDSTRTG

T3: GST_HS6ST2_C2 (human, UniProt Q96MM7 525-605)
T3 construct: Expressed in E. coli BL21 (DE3); whole cell lysate blotted after SDS-PAGE; also called GST fusion of amino acids 379-459 of HS6ST2_N-short; not shown: N-terminal glutathione S-transferase (GST) of vector pGEX-6P-1, with the vector's linker
T3 sequence: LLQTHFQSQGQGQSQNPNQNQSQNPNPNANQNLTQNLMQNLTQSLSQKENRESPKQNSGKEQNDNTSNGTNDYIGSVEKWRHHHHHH

T4: C-terminal V5 tagged HS6ST2_N-short (HS6ST2_N-short_ctV5), expressed in CHO DG44 cells (human, UniProt Q96MM7 147-605)
T4 construct: also called Q96MM7-2
T4 sequence: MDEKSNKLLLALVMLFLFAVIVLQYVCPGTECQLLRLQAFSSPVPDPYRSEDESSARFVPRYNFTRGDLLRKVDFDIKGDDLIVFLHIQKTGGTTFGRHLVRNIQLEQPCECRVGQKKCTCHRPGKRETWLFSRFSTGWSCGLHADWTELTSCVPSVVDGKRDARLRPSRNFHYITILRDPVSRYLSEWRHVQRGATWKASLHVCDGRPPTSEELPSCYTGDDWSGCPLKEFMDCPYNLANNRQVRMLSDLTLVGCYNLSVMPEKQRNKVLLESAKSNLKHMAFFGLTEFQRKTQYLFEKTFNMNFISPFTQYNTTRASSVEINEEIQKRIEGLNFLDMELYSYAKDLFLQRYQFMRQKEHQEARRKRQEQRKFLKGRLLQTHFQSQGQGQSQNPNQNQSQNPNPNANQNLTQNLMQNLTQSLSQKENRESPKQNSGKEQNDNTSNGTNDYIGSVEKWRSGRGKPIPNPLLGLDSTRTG

T5: GST_HS6ST2_N (human, UniProt Q96MM7 170-321)
T5 construct: Expressed in E. coli BL21 (DE3); whole cell lysate blotted after SDS-PAGE; also called GST fusion of amino acids 24-175 of HS6ST2_N-short; not shown: N-terminal glutathione S-transferase (GST) of vector pGEX-6P-1, with the vector's linker
T5 sequence: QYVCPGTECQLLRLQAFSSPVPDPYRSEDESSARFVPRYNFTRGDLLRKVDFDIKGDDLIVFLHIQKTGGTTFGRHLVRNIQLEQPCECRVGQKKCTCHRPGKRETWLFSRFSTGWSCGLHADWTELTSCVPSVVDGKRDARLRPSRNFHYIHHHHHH


Legend:
[1] = target: T1, C-terminal V5 tagged mouse HS6ST2 …; test: flow cytometry on mHS6ST2_ctV5_CHO cells
Description: (§1) Binding of the anti-HS6ST2 antibodies prepared in Example 2 to mHS6ST2 was evaluated by flow cytometry. The cells used were mHS6ST2_ctV5_CHO, HS6ST2_N-short_ctV5_CHO as a positive control, and the CHO DG44 cell line as a negative control.
(§2) Each anti-HS6ST2 antibody or mouse IgG1 (mIgG1, BD Biosciences Pharmingen) as a negative control was added to a final concentration of 2 μg/mL into 96-well U-bottom plates (Becton Dickinson) containing 5×10⁴ cells suspended in PBS (FACS buffer) supplemented with 0.5% bovine serum albumin and 0.1% NaN₃. After reaction on ice for 1 hour, the cells were washed with FACS buffer. Then, an FITC-labeled anti-mouse antibody (Goat F(ab′)₂ Fragment Anti-mouse IgG (H+L)-FITC, Beckman Coulter) was added as a secondary antibody, and the mixture was reacted on ice for 1 hour. The cells were washed with FACS buffer, and then suspended in FACS buffer containing 10 μg/mL propidium iodide (PI) (Sigma) and assayed by a flow cytometer (FACS Calibur, Becton Dickinson). The assay data were analyzed by CELLQuest software (Becton Dickinson), and the geo-mean of FITC fluorescent intensity was calculated for the PI-negative population of viable cells.

[2] = target: T2, C-terminal V5 tagged HS6ST2_N-long …; test: flow cytometry on HS6ST2_N-long_ctV5_CHO cells
Description: as §2
Binding activity of the anti-HS6ST2 antibodies prepared in Example 2 to HS6ST2_N-long was evaluated by flow cytometry. The cells used were HS6ST2_N-long_ctV5_CHO cells and HS6ST2_N-short_{—} ctV5_CHO cells as a positive control, and evaluated in the same manner as in Example 3. The primary antibodies were used at a concentration of 10 μg/mL.

[3] = target: T3, GST_HS6ST2_C2; test: Western blot of E. coli whole cell lysate, antibody 10 µg/mL
Description: (§3) GST_HS6ST2_N, GST_HS6ST2_mid, GST_HS6ST2_C, GST_HS6ST2_C1 and GST_HS6ST2_C2 were expressed in BL21 (DE3) Competent Cells (Takara Bio), and the whole cell lysates were resolved by SDS-PAGE electrophoresis and then transferred to PVDF membranes (Immobilon-P, Millipore) and Western blotted with the anti-HS6ST2 antibodies. The anti-HS6ST2 antibodies were used at 10 μg/mL, while the secondary antibody (HRP-anti mIgG, GE Healthcare) was used as a 3000-fold dilution, and blots were detected with ECL Western Blotting Detection Reagents (GE Healthcare). As a result, the anti-HS6ST2 antibodies A1, A10, B5, B6 and C8 bound to GST_HS6ST2_C2, A6 bound to GST_HS6ST2_C1, and C10 bound to GST_HS6ST2_N.

[4] = target: T4, C-terminal V5 tagged HS6ST2_N-short …; test: flow cytometry on HS6ST2_N-short_ctV5_CHO cells, antibody 2 µg/mL
Description: as §1, §2

[5] = target: T1, C-terminal V5 tagged mouse HS6ST2 …; test: flow cytometry on mHS6ST2_ctV5_CHO cells, antibody 2 µg/mL
Description: as §1, §2

[6] = target: T5, GST_HS6ST2_N; test: Western blot of E. coli whole cell lysate, antibody 10 µg/mL
Description: as §3

Row | binding result [1] | binding result [2] | binding result [3] | binding result [4] | binding result [5] | binding result [6] | Binder
1 | no binding (tested: 2 µg/mL) | binds | binds | binds | – | – | anti-HS6ST2 antibody B6 (antibody, mouse IgG1, V domains shown, also called clone B6) VH: EVQLQQSGAELVRSGASVKLSCTASGFNIKDYYMHWVKQRPEQGLEWIGWIDPDNGDTEYAPKFQGKATMTADTSSNTAYLQLSSLTSEDTAVYYCNAGNGNYWFAYWGQGTLVTVSA VL: DVVMTQTPLSLPVSLGDQASISCRSSQSLVHSNGNTYLHWNLQKPGQSPKLLIYKVSNRFSGVPDRFSGSGSGTDFTLKISRVEAEDLGVYFCSQTTLVPYTFGGGTKLEIK
2 | – | binds | – | binds | binds | binds | anti-HS6ST2 antibody C10 (antibody, mouse IgG1, V domains shown, also called clone C10) VH: QVQLHQPGSVLVRPGASVKLSCKASGYTFTDSWMHWAKQRPGQGLEWIGEIRPNSGKTNYNEKFKGKATLTVDTSSSTAYVDLRSLTSEDSAVYYCVRTYMSHFDYWGQGTTLTVSS VL: DIVMTQAAFSNPVTLGTSASISCRSSKSLLHSNGITYLYWYLQKPGQSPQLLIYQMSNLAPGVPDRVSSSGSGSDFTLRISRVEAEDVGVYYCAQNLELPFTFGSGTRLEIK
3 | no binding (tested: 2 µg/mL) | binds | binds | binds | – | – | anti-HS6ST2 antibody A10 (antibody, mouse IgG1, V domains shown, also called clone A10) VH: EVQLQQSGAELVKPGASVKLSCTASGFNIKDTYMHWVKQRPEQGLEWIGRIDPANGNTKFDPKFQGKASITADTSSNTAYLQLSSLTSEDTAVYYCATNLLRAMDYWGQGTSVTVSS VL: DIVMSQSPSSLTVSVGEKVTMSCKSSQSLLYSSNQKNYLAWCQQIPGQSPKLLIYWASTRESGVPDRFAGSGSGTDFTLTISSVKAEDLAVYYCLQYFTYPFTFGSGTKLEIK
4 | no binding (tested: 2 µg/mL) | binds | binds | binds | – | – | anti-HS6ST2 antibody B5 (antibody, mouse IgG1, V domains shown, also called clone B5; B5-biotin) VH: EVKLVESGGGLVKSGGSLKLSCVVSGFTFSRYAMSWVRQTPEKRLEWVASIVSGDKTYYPDSVKGRFTISRDNARNILYLQMSSLRSEDTAMYYCTRELGYFDVWGAGTTVTVSS VL: DVVMTQTPLSLPVSLGDQASISCRSSQSLVHSNGNTYLHWYLQKPGQSPKLLIYKVSNRFSGVPDRFSGSGSGTDFTLKISRVEAEDLGVYFCSQSIHVPPLTFGAGTKLELK
